Measurements from PMC4364448.

Molecular target: Arp2/3 complex (bovine) (UniProt A7MB62)
Experiment: ITC

Kd [nM] | Kd site-1 [nM] | Kd site-2 [nM] | stoichiometry N | fold lower affinity than N-WASP WCA, site-1 [fold] | fold lower affinity than N-WASP WCA, site-2 [fold] | Substance
200 | – | – | – | – | – | Human GMFγ (from UniProt O60234 1-142) (natural protein)
– | 20 | 182 | 2 | – | – | WCA_(N-WASP) (domain or fragment)
– | – | – | 2 | 2 | 6 | WCA_(WAVE) (domain or fragment)
